According to paper PMC2811017:
Where two headings read alike, the source gives them in different places.

Experiments:
Experiment in all cases: ITC
[1] = target: eRF1:eRF3 complex (human) (UniProt P62495)
[2] = target: full-length human eRF3a (GSPT1) (human)
[3] = target: full-length human eRF3a (GSPT1) (human); remark: listed apart in the source

Row | Substance | Kd [1] | dH [1] | stoichiometry N (PABP per eRF3) [1] | Kd [2] | dH [2] | stoichiometry N (PABP per eRF3) [2] | Ka [3] | dH [3] | Ka [2]
1 | human 6His cytoplasmic poly(A)-binding protein (PABP) (from UniProt P11940 1-636) (natural protein) | 700 nM | -26.3 kcal/mol | 0.71 | 700 nM | -30.3 kcal/mol | 0.5 | – | – | –
2 | human 6His eRF1 (from UniProt P62495 1-437) (natural protein) | – | – | – | – | -6.1 kcal/mol | – | 1.1e+06 M⁻¹ | -10.8 kcal/mol | 4.4e+06 M⁻¹
